Substrate in series [1]: Nc1ncnc2c1ncn2[C@@H]1O[C@H](COP(=O)(O)OP(=O)(O)OP(=O)(O)O)[C@@H](O)[C@H]1O
Briefly: Binding affinity to aurora B.

Substrate in series [2]: Nc1ncnc2c1ncn2[C@@H]1O[C@H](COP(=O)(O)OP(=O)(O)OP(=O)(O)O)[C@@H](O)[C@H]1O
Put plainly: Binding affinity to CHK1.

Substrate in series [3]: Nc1ncnc2c1ncn2[C@@H]1O[C@H](COP(=O)(O)OP(=O)(O)OP(=O)(O)O)[C@@H](O)[C@H]1O
Briefly: Binding affinity to Akt2.

B1: Aurora kinase B (Homo sapiens), Q96GD4 (protein)
chain: MAQKENSYPWPYGRQTAPSGLSTLPQRVLRKEPVTPSALVLMSRSNVQPTAAPGQKVMENSSGTPDILTRHFTIDDFEIGRPLGKGKFGNVYLAREKKSHFIVALKVLFKSQIEKEGVEHQLRREIEIQAHLHHPNILRLYNYFYDRRRIYLILEYAPRGELYKELQKSCTFDEQRTATIMEELADALMYCHGKKVIHRDIKPENLLLGLKGELKIADFGWSVHAPSLRRKTMCGTLDYLPPEMIEGRMHNEKVDLWCIGVLCYELLVGNPPFESASHNETYRRIVKVDLKFPASVPMGAQDLISKLLRHNPSERLPLAQVSAHPWVRANSRRVLPPSALQSVA
For the protein B1, the Km in series [1] amounted to 34 µM.

B2: Serine/threonine-protein kinase Chk1 (Homo sapiens), O14757 (protein)
chain: MAVPFVEDWDLVQTLGEGAYGEVQLAVNRVTEEAVAVKIVDMKRAVDCPENIKKEICINKMLNHENVVKFYGHRREGNIQYLFLEYCSGGELFDRIEPDIGMPEPDAQRFFHQLMAGVVYLHGIGITHRDIKPENLLLDERDNLKISDFGLATVFRYNNRERLLNKMCGTLPYVAPELLKRREFHAEPVDVWSCGIVLTAMLAGELPWDQPSDSCQEYSDWKEKKTYLNPWKKIDSAPLALLHKILVENPSARITIPDIKKDRWYNKPLKKGAKRPRVTSGGVSESPSGFSKHIQSNLDFSPVNSASSEENVKYSSSQPEPRTGLSLWDTSPSYIDKLVQGISFSQPTCPDHMLLNSQLLGTPGSSQNPWQRLVKRMTRFFTKLDADKSYQCLKETCEKLGYQWKKSCMNQVTISTTDRRNNKLIFKVNLLEMDDKILVDFRLSKGDGLEFKRHFLKIKGKLIDIVSSQKIWLPAT
In the case of B2, the Km in series [2] was 1.4 µM.

B3: RAC-beta serine/threonine-protein kinase (Homo sapiens), P31751 (protein)
chain: MNEVSVIKEGWLHKRGEYIKTWRPRYFLLKSDGSFIGYKERPEAPDQTLPPLNNFSVAECQLMKTERPRPNTFVIRCLQWTTVIERTFHVDSPDEREEWMRAIQMVANSLKQRAPGEDPMDYKCGSPSDSSTTEEMEVAVSKARAKVTMNDFDYLKLLGKGTFGKVILVREKATGRYYAMKILRKEVIIAKDEVAHTVTESRVLQNTRHPFLTALKYAFQTHDRLCFVMEYANGGELFFHLSRERVFTEERARFYGAEIVSALEYLHSRDVVYRDIKLENLMLDKDGHIKITDFGLCKEGISDGATMKTFCGTPEYLAPEVLEDNDYGRAVDWWGLGVVMYEMMCGRLPFYNQDHERLFELILMEEIRFPRTLSPEAKSLLAGLLKKDPKQRLGGGPSDAKEVMEHRFFLSINWQDVVQKKLLPPFKPQVTSEVDTRYFDDEFTAQSITITPPDRYDSLGLLELDQRTHFPQFSYSASIRE
Consider B3, for which the Michaelis constant (Km) in series [3] stood at 254 µM.

As a reminder, the Km is the concentration of substrate that gives half-maximal velocity.
